Measured values: publication PMC11955523, “Cryo-TEM structure of β-glucocerebrosidase in complex with its transporter LIMP-2” (Nature Communications, 2025)

T1: β-glucocerebrosidase (GCase), untagged wild type (human, UniProt P04062 40-536, N-glycans at N19, N59, N146, N270)
T1 construct: β-glucocerebrosidase (GCase), human, gene GBA1, wild type, expressed from the commercial plasmid pCMV3-GBA-wt; also called GCase wt; wt GCase; source: HEK 293F-sL2 cells transfected with pCMV3-GBA-wt, secreted in complex with sLIMP-2, purified (Ni-NTA, SEC); HEK 293F cells co-transfected with sLIMP-2 plasmids, in conditioned medium
T1 sequence (looked up): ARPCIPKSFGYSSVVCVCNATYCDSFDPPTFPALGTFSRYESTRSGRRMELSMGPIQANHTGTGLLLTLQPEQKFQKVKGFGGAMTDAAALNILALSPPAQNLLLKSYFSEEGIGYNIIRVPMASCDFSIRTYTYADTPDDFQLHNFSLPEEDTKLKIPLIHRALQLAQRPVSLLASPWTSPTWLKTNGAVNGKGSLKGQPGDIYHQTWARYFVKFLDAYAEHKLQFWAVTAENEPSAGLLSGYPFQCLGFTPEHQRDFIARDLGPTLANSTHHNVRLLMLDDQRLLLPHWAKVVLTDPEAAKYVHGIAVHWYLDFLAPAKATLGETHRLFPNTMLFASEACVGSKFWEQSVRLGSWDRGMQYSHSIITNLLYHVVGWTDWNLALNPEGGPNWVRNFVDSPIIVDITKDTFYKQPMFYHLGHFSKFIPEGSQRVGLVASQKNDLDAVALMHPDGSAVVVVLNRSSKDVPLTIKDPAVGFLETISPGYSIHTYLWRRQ

T2: recombinant GCase with C-terminal His10-tag (for cross-linking with SapC) (human, UniProt P04062 40-536)
T2 construct: β-glucocerebrosidase (GCase), with a small spacer and a TEV protease cleavage site before the C-terminal His10-tag; no TEV cleavage is described; source: FreeStyle 293 HEK cells, stably transfected (pcDNA3.1(+)), purified from cell media (HisTrap)
T2 sequence (looked up): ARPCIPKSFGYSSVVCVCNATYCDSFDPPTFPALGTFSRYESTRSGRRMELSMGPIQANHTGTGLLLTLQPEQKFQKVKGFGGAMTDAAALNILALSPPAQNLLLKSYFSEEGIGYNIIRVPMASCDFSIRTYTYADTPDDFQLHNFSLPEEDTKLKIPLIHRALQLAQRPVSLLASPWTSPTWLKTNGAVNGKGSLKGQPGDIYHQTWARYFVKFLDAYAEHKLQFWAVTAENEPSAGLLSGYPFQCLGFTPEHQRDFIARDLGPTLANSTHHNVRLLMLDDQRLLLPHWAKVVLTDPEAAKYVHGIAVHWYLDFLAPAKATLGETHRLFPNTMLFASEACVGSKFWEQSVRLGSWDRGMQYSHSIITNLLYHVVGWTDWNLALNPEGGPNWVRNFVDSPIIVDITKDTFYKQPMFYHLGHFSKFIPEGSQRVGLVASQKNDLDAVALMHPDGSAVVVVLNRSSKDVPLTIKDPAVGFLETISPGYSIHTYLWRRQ


Assays:
Conditions in all cases: both partners purified
[1] = biological target: T3, β-glucocerebrosidase (GCase), untagged wild type (human, UniProt P04062, N-glycans at N19, N59, N146, N270); test: cryo-EM structure; GCase/sLIMP-2/PMb1/PMb2 complex from SEC, 0.6 mg/ml, single particle analysis, 3.7 Å global resolution
T3 construct: β-glucocerebrosidase (GCase), human, gene GBA1, wild type, expressed from the commercial plasmid pCMV3-GBA-wt; also called GCase wt; wt GCase; source: HEK 293F-sL2 cells transfected with pCMV3-GBA-wt, secreted in complex with sLIMP-2, purified (Ni-NTA, SEC); HEK 293F cells co-transfected with sLIMP-2 plasmids, in conditioned medium

[2] = biological target: T4, GCase used for size exclusion chromatography with Nb1 and Nb6 (human, UniProt P04062); test: SEC; 20 µM GCase mixed with 100 µM Nb1, Nb6 or both; Superdex 200 Increase 5/150 GL, 10 mM MES, 100 mM NaCl, 1 mM DTT, 5% glycerol, pH 5.2, 12 °C
T4 construct: β-glucocerebrosidase (GCase); it may be the same as m8 or another recombinant GCase

[3] = biological target: T1, β-glucocerebrosidase (GCase), untagged …; test: cryo-EM structure; GCase/sLIMP-2/PMb1/PMb2 complex from SEC, 0.6 mg/ml, single particle analysis, 3.7 Å global resolution
[4] = biological target: T2, recombinant GCase with C-terminal …; test: cross-linking; GCase 16.3-20.0 µM and SapC 32.5 µM in McIlvaine buffer pH 6.0 with 10 mM NaCl (some reactions with 0.1% Triton X-100 and 0.25% sodium taurocholate); BS3(d0)/BS3(d4) or DTSSP at 1 mM, 1 h at room temperature; gel bands read by mass spectrometry

| Binder | binding result [1] | binding result [2] | also measured |
| --- | --- | --- | --- |
| pro-macrobody PMb1 (nanobody Nb1, CA16655, fused to maltose binding protein) (VHH, nanobody Nb1 (CA16655) raised against GCase; proline-proline linker, told in words; The N-terminal pelB-10xHis-MBP was removed with 3C protease; the C-terminal MBP is part of the pro-macrobody and was detected by anti-MBP blot; By my reading of the printed primers the C-terminal MBP begins at LVIWING after the PP linker and ends at KDAQT followed by PGA; Only the nanobody domain is modelled in …) VHH: QVQLVESGGGLVQPGGSLRLSCAASGFTLDYYAIGWFRQAPGKEREGVSCISSSDGSTYYADSAKGRFTISRDNAKNTVYLQMNSLKPEDTAVYYCATDRGQCTYYSSGYYRDLRWYDYWGQGTQVTVPP | binds |  |  |
| nanobody Nb1 (CA16655) against GCase (VHH, nanobody Nb1 (CA16655); they are in PDB 9ENA and, as the nanobody domain of m3, in PDB 9FJF; Encoded in a pHEN29 vector; also called Nbs1) VHH: QVQLVESGGGLVQPGGSLRLSCAASGFTLDYYAIGWFRQAPGKEREGVSCISSSDGSTYYADSAKGRFTISRDNAKNTVYLQMNSLKPEDTAVYYCATDRGQCTYYSSGYYRDLRWYDYWGQGTQVTVSS |  | binds |  |
| soluble LIMP-2 shuttle construct (sLIMP-2), secreted LIMP-2 ectodomain, wild type (domain or fragment, human, UniProt Q14108 36-431, looked up, N-glycans at N45, N68, N105, N206, N224, N249, N304, N325, N412, lysosomal integral membrane protein type-2 (LIMP-2), human, gene SCARB2, amino acids 36-431 (ectodomain); the 10xHis tag is TEV-cleavable, and no cleavage is described; also called wt sLIMP-2; lysosomal integral membrane protein type-2; source: HEK 293F cells transfected, in conditioned medium; not shown: His10, C-terminal, kept) SIEKKIVLRNGTEAFDSWEKPPLPVYTQFYFFNVTNPEEILRGETPRVEEVGPYTYRELRNKANIQFGDNGTTISAVSNKAYVFERDQSVGDPKIDLIRTLNIPVLTVIEWSQVHFLREIIEAMLKAYQQKLFVTHTVDELLWGYKDEILSLIHVFRPDISPYFGLFYEKNGTNDGDYVFLTGEDSYLNFTKIVEWNGKTSLDWWITDKCNMINGTDGDSFHPLITKDEVLYVFPSDFCRSVYITFSDYESVQGLPAFRYKVPAEILANTSDNAGFCIPEGNCLGSGVLNVSICKNGAPIIMSFPHFYQADERFVSAIEGMHPNQEDHETFVDINPLTGIILKAAKRFQINIYVKKLDDFVETGDIRTMVFPVMYLNESVHIDKETASRLKSMINT |  |  | binding result [3]: binds |
| Saposin C (SapC) (natural protein, Homo sapiens, UniProt P07602 311-390, looked up, Saposin C, Homo sapiens, the cut product of prosaposin; synthetic gene, codon optimised for E. coli, in pET-28a(+); The His6-tag is followed by a TEV protease cleavage site; no cleavage is described in the purification; source: E. coli BL21(DE3) or BL21(DE3)pLysS, purified (HisTrap, Superdex 75)) SDVYCEVCEFLVKEVTKLIDNNKTEKEILDAFDKMCSKLPKSLSEECQEVVDTYGSSILSILLEEVSPELVCSMLHLCSG |  |  | binding result [4]: binds |

Now from value to binder, other results behind:

| binding result [1] | binding result [2] | Binder | also measured |
| --- | --- | --- | --- |
| binds |  | pro-macrobody PMb2 (nanobody Nb6, CA16669, fused to maltose binding protein) (VHH, nanobody Nb6 (CA16669) raised against GCase; proline-proline linker, told in words; The N-terminal pelB-10xHis-MBP was removed with 3C protease; Only the nanobody domain is modelled in PDB 9FJF; also called PMbs; source: E. coli MC1061, purified (Ni-NTA, 3C cleavage, second IMAC, SEC); not shown: His10, N-terminal, cleaved; MBP, N-terminal, cleaved) VHH: QVQLVESGGGLVQPGGSLRLSCAASGSIFSINTMGWYRQAPGKEREMVAYIITFGSTNYADSVKGRFTISGDNANNTMWLQMNSLKPEDTAVYYCYAAIRPTDSSTYTSYWGQGTQVTVPP |  |
|  | binds | nanobody Nb6 (CA16669) against GCase (VHH, nanobody Nb6 (CA16669); they are, as the nanobody domain of m4, in PDB 9FJF; Encoded in a pHEN29 vector) VHH: QVQLVESGGGLVQPGGSLRLSCAASGSIFSINTMGWYRQAPGKEREMVAYIITFGSTNYADSVKGRFTISGDNANNTMWLQMNSLKPEDTAVYYCYAAIRPTDSSTYTSYWGQGTQVTVPP |  |
